Reference: patent US20240409629A1 (CHIA TAI TIANQING PHARMACEUTICAL GROUP, published 2024)
Where two headings read alike, the source gives them in different places.

B1: chimeric antibody xi28G3 (antibody, human IgG1, kappa, V domains shown)
VH: EIQLQQTGPELVKPGASVTISCKTSGYSFTDYLMLWVKQSHGKSLEWIGNINPYYGRTTYNLKFKGKATLTVDRSSSTAYMQLNSLTSEDSAVYYCARDGYSLRNAMDYWGQGTSVTVSS
VL: DIVMTQSPYSLSVSTGEKVTMSCKSSQSLFNSGNQKNYLAWYQQKPGQPPKLLIYGASTRESGVPDRFTGSGSGTDFTLTISSVQAEDLALYYCQNAHSYPYTFGGGTKLEIKR
notes: Mouse variable regions on human IgG1/kappa; defucosylated, expressed in FUT8-knockout CHO-S cells; also called chimeric 28G3
B2: chimeric antibody xi40F6 (antibody, human IgG1, kappa, V domains shown)
VH: QVQLKESGPGLVAPSQSLSITCTVSGFSLTSYGVYWVRQSPGKGLEWLGVVWAGGNTNYNSALMSRLSISKDNSKSQVFLKMNSLQTDDTAMYYCARDRGRLLAMDYWGQGTSVTVSS
VL: DVVMTQSPSSLSVSAGEKVTMSCKSSQSLLNSGNQKNYLAWYQQKPGQPPKLLIYGASTRESGVPDRFTGSGSGTDFTLTISSVQAEDLAVYYCQNDHFFPFTFGSGTKLEIKR
notes: Mouse variable regions on human IgG1/kappa; defucosylated, expressed in FUT8-knockout CHO-S cells; also called chimeric 40F6
B3: IMAB362 (antibody, human IgG1, kappa, V domains shown)
VH: QVQLQQPGAELVRPGASVKLSCKASGYTFTSYWINWVKQRPGQGLEWIGNIYPSDSYTNYNQKFKDKATLTVDKSSSTAYMQLSSPTSEDSAVYYCTRSWRGNSFDYWGQGTTLTVSS
VL: DIVMTQSPSSLTVTAGEKVTMSCKSSQSLLNSGNQKNYLTWYQQKPGQPPKLLIYWASTRESGVPDRFTGSGSGTDFTLTISSVQAEDLAVYYCQNDYSYPFTFGSGTKLEIKR
notes: Positive control, prepared in-house; also called Claudiximab; TMAB362 [sic]
B4: chimeric antibody xi34G6 (antibody, human IgG1, kappa, V domains shown)
VH: QVQLKESGPDLVAPSQSLSITCTVSGFSLTSYGVHWVRQPPGKGLEWLVVIWSDGSTTYNSALKSRLSISKDNSKSQVFLKMNSLQTDDTAIYYCARHAYYGNSFDYWGQGTTLTVSS
VL: DIVMTQSPSSLTVTAGEKVTMSCKSSQSLLNSGNQKSYLTWYQQKPGQPPKLLIYWASTRESGVPDRFTGSGSGTDFTLTISSVQAEDLAVYYCQNVYIFPLTFGAGTKLELKR
notes: Mouse variable regions on human IgG1/kappa; defucosylated, expressed in FUT8-knockout CHO-S cells; also called chimeric 34G6

Legend:
human CLDN18.2 [1] = molecular target: human CLDN18.2 (human); experiment: cell-based or functional assay
human CLDN18.2 [2] = molecular target: human CLDN18.2 (human); experiment: cell-based or functional assay; remark: listed apart in the source
human CLDN18.2 [3] = molecular target: human CLDN18.2 (human); experiment: cell-based or functional assay; remark: listed apart in the source
human CLDN18.2 [4] = molecular target: human CLDN18.2 (human); experiment: cell-based or functional assay; remark: listed apart in the source
human CLDN18.2 [5] = molecular target: human CLDN18.2 (human); experiment: cell-based or functional assay; remark: listed apart in the source
human CLDN18.2 [6] = molecular target: human CLDN18.2 (human); experiment: cell-based or functional assay; remark: listed apart in the source
human CLDN18.2 [7] = molecular target: T1, human CLDN18.2 (human); experiment: FACS, U2OS-CLDN18.2 cells
T1 construct: also called claudin18.2
Experimental: (§1) Based on the FACS method, the binding activity of anti-CLDN18.2 antibodies for the cell line U2OS-CLDN18.2 overexpressing CLDN18.2 and the cell lines KATOIII (Cell Bank of the Chinese Academy of Sciences) and NUGC-4 (Cell Bank of the Chinese Academy of Sciences) naturally expressing CLDN18.2 was analyzed.
(§2) The cell concentration was adjusted with PBS, and cells (U2OS-CLDN18.2, KATOIII, or NUGC-4 cells) were added to a 96-well plate at 3×10⁵ cells/well, then the test antibodies at different concentrations were added to each well of the 96-well plate, and the mixture was incubated at 4° C. for 60 min. […] The supernatant was discarded, the cells were washed 3 times with pre-cooled PBS buffer, PE-Goat Anti-Human IgG Fcγ (Jackson immunoresearch, Cat. No. 109-116-170) diluted at 1:200 was added at 100 μL/well, and the mixture was incubated at 4° C. for 30 min. Cells were washed 3 times with pre-cooled PBS buffer and resuspended in 100 μL of PBS buffer, and then the fluorescence signals were detected using a flow cytometer (Sartorius, iQUE3). The binding ability of the anti-CLDN18.2 antibodies for CLDN18.2 was measured by mean fluorescence intensity (MFI) of staining.

human CLDN18.2 [8] = molecular target: T1, human CLDN18.2; experiment: FACS, NUGC-4 cells (natural CLDN18.2)
Experimental: as §1, §2

human CLDN18.2 [9] = molecular target: T1, human CLDN18.2; experiment: FACS, NUGC-4 cells (natural CLDN18.2); remark: listed apart in the source
Experimental: (§3) Based on the FACS method, the binding activity of anti-CLDN18.2 humanized antibodies for the cell lines KATOIII (Cell Bank of the Chinese Academy of Sciences) and NUGC-4 (Cell Bank of the Chinese Academy of Sciences) naturally expressing CLDN18.2 was analyzed. […] See Example 3 for the specific method.

human CLDN18.2 [10] = molecular target: T1, human CLDN18.2; experiment: FACS, KATOIII cells (natural CLDN18.2)
Experimental: as §1, §2

human CLDN18.2 [11] = molecular target: T1, human CLDN18.2; experiment: FACS, KATOIII cells (natural CLDN18.2); remark: listed apart in the source
Experimental: as §3

human CLDN18.1 [12] = molecular target: T2, human CLDN18.1 (human, UniProt P56856 1-261); experiment: FACS, U2OS-CLDN18.1 cells, antibody at 200 nM
T2 construct: also called claudin18.1
Experimental: (§4) Based on the FACS method, the binding activity of anti-CLDN18.2 antibodies for the cell line U2OS-CLDN18.1 overexpressing CLDN18.1 (SEQ ID NO: 2) was analyzed. The cell concentration was adjusted with PBS, and the U2OS-CLDN18.1 cells were added to a 96-well plate at 3×10⁵ cells/well, then the test antibodies were added to each well of the 96-well plate, the final concentration of the antibody was 200 nM, and the mixture was incubated at 4° C. for 60 min. The supernatant was discarded, the cells were washed 3 times with pre-cooled PBS buffer, PE-Goat Anti-Human IgG Fcγ (Jackson immunoresearch, Cat. No. 109-116-170) diluted at 1:200 was added at 100 μL/well, and the mixture was incubated at 4° C. for 30 min. Cells were washed 3 times with pre-cooled PBS buffer and resuspended in 100 μL of PBS buffer, and then the fluorescence signals were detected using a flow cytometer (Sartorius, iQUE3). The nonspecific binding of the anti-CLDN18.2 antibodies for U2OS-CLDN18.1 cells was measured by mean fluorescence intensity (MFI) of staining. The IgG1 isotype control antibody (prepared in-house, with the heavy and light chain amino acid sequences as set forth in SEQ ID NOs: 67 and 68 in the present disclosure) was used as the control, and 2-fold the IgG1 isotype control antibody was used as the benchmark, thus determining the presence or absence of nonspecific binding.

human CLDN18.1 [13] = molecular target: T2, human CLDN18.1; experiment: FACS, U2OS-CLDN18.1 cells; MFI against 2-fold the IgG1 isotype control
Experimental: as §4

human CLDN18.2 [14] = molecular target: T1, human CLDN18.2; experiment: cell-based or functional assay; remark: listed apart in the source
human CLDN18.2 [15] = molecular target: T1, human CLDN18.2; experiment: cell-based or functional assay; remark: listed apart in the source
human CLDN18.2 [16] = molecular target: T1, human CLDN18.2; experiment: FACS, U2OS-CLDN18.2 cells; remark: listed apart in the source
Experimental: as §1, §2

human CLDN18.2 [17] = molecular target: T1, human CLDN18.2; experiment: FACS, NUGC-4 cells (natural CLDN18.2); remark: listed apart in the source
Experimental: as §1, §2

human CLDN18.2 [18] = molecular target: T1, human CLDN18.2; experiment: FACS, NUGC-4 cells (natural CLDN18.2); remark: listed apart in the source
Experimental: as §3

human CLDN18.2 [19] = molecular target: T1, human CLDN18.2; experiment: FACS, KATOIII cells (natural CLDN18.2); remark: listed apart in the source
Experimental: as §1, §2

human CLDN18.2 [20] = molecular target: T1, human CLDN18.2; experiment: FACS, KATOIII cells (natural CLDN18.2); remark: listed apart in the source
Experimental: as §3

human CLDN18.2 [21] = molecular target: T1, human CLDN18.2; experiment: FACS, U2OS-CLDN18.2 cells; remark: listed apart in the source
Experimental: as §1, §2

human CLDN18.2 [22] = molecular target: T1, human CLDN18.2; experiment: FACS, NUGC-4 cells (natural CLDN18.2); remark: listed apart in the source
Experimental: as §1, §2

Row | Binder | ADCC EC50, Jurkat-CD16a v158-NFAT-luciferase effector cells, KATOIII target cells (human CLDN18.2 [1]) [nM] | ADCC EC50, Jurkat-CD16a v158-NFAT-luciferase effector cells, NUGC-4 target cells (human CLDN18.2 [1]) [nM] | ADCC EC50, Jurkat-CD16a v158-NFAT-luciferase effector cells, U2OS-CLDN18.2 target cells (human CLDN18.2 [1]) [nM] | ADCC EC50, PBMC effector cells, KATOIII target cells (human CLDN18.2 [2]) [nM] | ADCC EC50, PBMC effector cells, NUGC-4 target cells (human CLDN18.2 [2]) [nM] | ADCC Maximum killing (%), PBMC effector cells, KATOIII target cells (human CLDN18.2 [2]) [%] | ADCC Maximum killing (%), PBMC effector cells, NUGC-4 target cells (human CLDN18.2 [2]) [%] | CDC EC50, KATOIII target cells (human CLDN18.2 [3]) [nM] | CDC EC50, U2OS-CLDN18.2 target cells (human CLDN18.2 [3]) [nM] | ADCC EC50, Jurkat-CD16a v158-NFAT-luciferase effector cells, KATOIII target cells (human CLDN18.2 [4]) [nM] | ADCC EC50, Jurkat-CD16a v158-NFAT-luciferase effector cells, U2OS-CLDN18.2 target cells (human CLDN18.2 [4]) [nM] | EC50 (human CLDN18.2 [7]) [nM] | EC50 (human CLDN18.2 [8]) [nM] | EC50 (human CLDN18.2 [9]) [nM] | EC50 (human CLDN18.2 [10]) [nM] | EC50 (human CLDN18.2 [11]) [nM] | MFI (human CLDN18.1 [12]) | binding result (human CLDN18.1 [13]) | ADCC EC50, Jurkat-CD16a v158-NFAT-luciferase effector cells, NIH-3T3-CLDN18.2 target cells (human CLDN18.2 [14]) [nM] | EC50 (human CLDN18.2 [19]) [nM] | further results
1 | B1 | 0.03 | 0.121 | 0.028 | 38.4 | 0.44 | 76.8 | 43.3 | 0.112 | 1.58 | 0.043 | 0.018 | 7.78 | 21.2 | 44.1 | 3.31 | 6.63 | 7560 | no binding (tested: 200 nM) | – | – | ADCC EC50, PBMC effector cells, KATOIII target cells (human CLDN18.2 [5]): 0.82 nM; ADCC EC50, PBMC effector cells, NIH-3T3-CLDN18.2 target cells (human CLDN18.2 [5]): 0.54 nM; ADCC EC50, PBMC effector cells, NUGC-4 target cells (human CLDN18.2 [5]): 3.26 nM; ADCC Maximum killing (%), PBMC effector cells, KATOIII target cells (human CLDN18.2 [5]): 29.9%; ADCC Maximum killing (%), PBMC effector cells, NIH-3T3-CLDN18.2 target cells (human CLDN18.2 [5]): 47%; ADCC Maximum killing (%), PBMC effector cells, NUGC-4 target cells (human CLDN18.2 [5]): 22.5%; CDC EC50, NIH-3T3-CLDN18.2 target cells (human CLDN18.2 [6]): 0.27 nM
2 | B2 | 0.03 | 0.147 | 0.032 | – | 0.8 | – | 45.2 | 0.127 | 1.07 | – | – | – | – | – | – | – | 7070 | no binding (tested: 200 nM) | 0.014 | 5.97 | ADCC EC50, Jurkat-CD16a v158-NFAT-luciferase effector cells, NUGC-4 target cells (human CLDN18.2 [14]): ~0.014 nM; CDC EC50, NIH-3T3-CLDN18.2 target cells (human CLDN18.2 [15]): 0.29 nM; EC50 (human CLDN18.2 [16]): 4.47 nM; EC50 (human CLDN18.2 [17]): 12.5 nM; EC50 (human CLDN18.2 [18]): 12.5 nM; EC50 (human CLDN18.2 [20]): 7.02 nM
3 | B3 | 1.52 | 12 | 0.05 | ~0.123 | 37.1 | 20.7 | 29.1 | 12.8 | 9.79 | 16.9 | 0.014 | 16 | 1450 | 293 | 81.3 | 16.3 | 6220 | – | 0.023 | ~26900 | ADCC EC50, Jurkat-CD16a v158-NFAT-luciferase effector cells, NUGC-4 target cells (human CLDN18.2 [14]): 0.856 nM; CDC EC50, NIH-3T3-CLDN18.2 target cells (human CLDN18.2 [15]): 24.4 nM; EC50 (human CLDN18.2 [16]): 22.9 nM; EC50 (human CLDN18.2 [21]): 16.2 nM; EC50 (human CLDN18.2 [17]): 567 nM; EC50 (human CLDN18.2 [22]): 202 nM; EC50 (human CLDN18.2 [18]): 567 nM; EC50 (human CLDN18.2 [20]): 38.2 nM
4 | B4 | 0.064 | 0.214 | 0.06 | – | 0.62 | – | 40.9 | 0.302 | 1.77 | – | – | – | – | – | – | – | 7630 | no binding (tested: 200 nM) | – | 1.79 | EC50 (human CLDN18.2 [21]): 4.28 nM; EC50 (human CLDN18.2 [22]): 19.9 nM
